Reference: paper PMC7367873, “Dissecting the sequence determinants for dephosphorylation by the catalytic subunits of phosphatases PP1 and PP2A” (Nature Communications, 2020)

B1: PRSS56 (protein, UniProt P0CW18 20-603, looked up)
Serine protease 56: HPLYTRLPPSALQVLSAQGTQALQAAQRSAQWAINRVAMEIQHRSHECRGSGRPRPQALLQDPPEPGPCGERRPSTANVTRAHGRIVGGSAAPPGAWPWLVRLQLGGQPLCGGVLVAASWVLTAAHCFVGAPNELLWTVTLAEGSRGEQAEEVPVNRILPHPKFDPRTFHNDLALVQLWTPVSPGGSARPVCLPQEPQEPPAGTACAIAGWGALFEDGPEAEAVREARVPLLSTDTCRRALGPGLRPSTMLCAGYLAGGVDSCQGDSGGPLTCSEPGPRPREVLFGVTSWGDGCGEPGKPGVYTRVAVFKDWLQEQMSASSSREPSCRELLAWDPPQELQADAARLCAFYARLCPGSQGACARLAHQQCLQRRRRCELRSLAHTLLGLLRNAQELLGPRPGLRRLAPALALPAPALRESPLHPARELRLHSGSRAAGTRFPKRRPEPRGEANGCPGLEPLRQKLAALQGAHAWILQVPSEHLAMNFHEVLADLGSKTLTGLFRAWVRAGLGGRHVAFSGLVGLEPATLARSLPRLLVQALQAFRVAALAEGEPEGPWMDVGQGPGLERKGHHPLNPQVPPARQP
B2: PFKL (protein, UniProt P17858 2-780, looked up)
ATP-dependent …: AAVDLEKLRASGAGKAIGVLTSGGDAQGMNAAVRAVTRMGIYVGAKVFLIYEGYEGLVEGGENIKQANWLSVSNIIQLGGTIIGSARCKAFTTREGRRAAAYNLVQHGITNLCVIGGDGSLTGANIFRSEWGSLLEELVAEGKISETTARTYSHLNIAGLVGSIDNDFCGTDMTIGTDSALHRIMEVIDAITTTAQSHQRTFVLEVMGRHCGYLALVSALASGADWLFIPEAPPEDGWENFMCERLGETRSRGSRLNIIIIAEGAIDRNGKPISSSYVKDLVVQRLGFDTRVTVLGHVQRGGTPSAFDRILSSKMGMEAVMALLEATPDTPACVVTLSGNQSVRLPLMECVQMTKEVQKAMDDKRFDEATQLRGGSFENNWNIYKLLAHQKPPKEKSNFSLAILNVGAPAAGMNAAVRSAVRTGISHGHTVYVVHDGFEGLAKGQVQEVGWHDVAGWLGRGGSMLGTKRTLPKGQLESIVENIRIYGIHALLVVGGFEAYEGVLQLVEARGRYEELCIVMCVIPATISNNVPGTDFSLGSDTAVNAAMESCDRIKQSASGTKRRVFIVETMGGYCGYLATVTGIAVGADAAYVFEDPFNIHDLKVNVEHMTEKMKTDIQRGLVLRNEKCHDYYTTEFLYNLYSSEGKGVFDCRTNVLGHLQQGGAPTPFDRNYGTKLGVKAMLWLSEKLREVYRKGRVFANAPDSACVIGLKKKAVAFSPVTELKKDTDFEHRMPREQWWLSLRLMLKMLAQYRISMAAYVSGELEHVTRRTLSMDKGF
B3: FAM83B (protein, UniProt Q5T0W9 1-1011, looked up)
Protein FAM83B: METSSMLSSLNDECKSDNYIEPHYKEWYRVAIDILIEHGLEAYQEFLVQERVSDFLAEEEINYILKNVQKVAQSTAHGTDDSCDDTLSSGTYWPVESDVEAPNLDLGWPYVMPGLLGGTHIDLLFHPPRAHLLTIKETIRKMIKEARKVIALVMDIFTDVDIFKEIVEASTRGVSVYILLDESNFNHFLNMTEKQGCSVQRLRNIRVRTVKGQDYLSKTGAKFHGKMEQKFLLVDCQKVMYGSYSYMWSFEKAHLSMVQIITGQLVESFDEEFRTLYARSCVPSSFAQEESARVKHGKALWENGTYQHSVSSLASVSSQRNLFGRQDKIHKLDSSYFKNRGIYTLNEHDKYNIRSHGYKPHFVPNFNGPNAIRQFQPNQINENWKRHSYAGEQPETVPYLLLNRALNRTNNPPGNWKKPSDSLSVASSSREGYVSHHNTPAQSFANRLAQRKTTNLADRNSNVRRSFNGTDNHIRFLQQRMPTLEHTTKSFLRNWRIESYLNDHSEATPDSNGSALGDRFEGYDNPENLKANALYTHSRLRSSLVFKPTLPEQKEVNSCTTGSSNSTIIGSQGSETPKEVPDTPTNVQHLTDKPLPESIPKLPLQSEAPKMHTLQVPENHSVALNQTTNGHTESNNYIYKTLGVNKQTENLKNQQTENLLKRRSFPLFDNSKANLDPGNSKHYVYSTLTRNRVRQPEKPKEDLLKSSKSMHNVTHNLEEDEEEVTKRNSPSGTTTKSVSIAALLDVNKEESNKELASKKEVKGSPSFLKKGSQKLRSLLSLTPDKKENLSKNKAPAFYRLCSSSDTLVSEGEENQKPKKSDTKVDSSPRRKHSSSSNSQGSIHKSKEDVTVSPSQEINAPPDENKRTPSPGPVESKFLERAGDASAPRFNTEQIQYRDSREINAVVTPERRPTSSPRPTSSELLRSHSTDRRVYSRFEPFCKIESSIQPTSNMPNTSINRPEIKSATMGNSYGRSSPLLNYNTGVYRSYQPNENKFRGFMQKFGNFIHKNK
B4: ERLIN1 (protein, UniProt O75477 1-348, looked up)
Erlin-1: MNMTQARVLVAAVVGLVAVLLYASIHKIEEGHLAVYYRGGALLTSPSGPGYHIMLPFITTFRSVQTTLQTDEVKNVPCGTSGGVMIYIDRIEVVNMLAPYAVFDIVRNYTADYDKTLIFNKIHHELNQFCSAHTLQEVYIELFDQIDENLKQALQKDLNLMAPGLTIQAVRVTKPKIPEAIRRNFELMEAEKTKLLIAAQKQKVVEKEAETERKKAVIEAEKIAQVAKIRFQQKVMEKETEKRISEIEDAAFLAREKAKADAEYYAAHKYATSNKHKLTPEYLELKKYQAIASNSKIYFGSNIPNMFVDSSCALKYSDIRTGRESSLPSKEALEPSGENVIQNKESTG
B5: RBM3 (protein, UniProt P98179 1-157, looked up)
RNA-binding protein 3: MSSEEGKLFVGGLNFNTDEQALEDHFSSFGPISEVVVVKDRETQRSRGFGFITFTNPEHASVAMRAMNGESLDGRQIRVDHAGKSARGTRGGGFGAHGRGRSYSRGGGDQGYGSGRYYDSRPGGYGYGYGRSRDYNGRNQGGYDRYSGGNYRDNYDN
B6: NCBP1 (protein, UniProt Q09161 1-790, looked up)
Nuclear cap-binding protein …: MSRRRHSDENDGGQPHKRRKTSDANETEDHLESLICKVGEKSACSLESNLEGLAGVLEADLPNYKSKILRLLCTVARLLPEKLTIYTTLVGLLNARNYNFGGEFVEAMIRQLKESLKANNYNEAVYLVRFLSDLVNCHVIAAPSMVAMFENFVSVTQEEDVPQVRRDWYVYAFLSSLPWVGKELYEKKDAEMDRIFANTESYLKRRQKTHVPMLQVWTADKPHPQEEYLDCLWAQIQKLKKDRWQERHILRPYLAFDSILCEALQHNLPPFTPPPHTEDSVYPMPRVIFRMFDYTDDPEGPVMPGSHSVERFVIEENLHCIIKSHWKERKTCAAQLVSYPGKNKIPLNYHIVEVIFAELFQLPAPPHIDVMYTTLLIELCKLQPGSLPQVLAQATEMLYMRLDTMNTTCVDRFINWFSHHLSNFQFRWSWEDWSDCLSQDPESPKPKFVREVLEKCMRLSYHQRILDIVPPTFSALCPANPTCIYKYGDESSNSLPGHSVALCLAVAFKSKATNDEIFSILKDVPNPNQDDDDDEGFSFNPLKIEVFVQTLLHLAAKSFSHSFSALAKFHEVFKTLAESDEGKLHVLRVMFEVWRNHPQMIAVLVDKMIRTQIVDCAAVANWIFSSELSRDFTRLFVWEILHSTIRKMNKHVLKIQKELEEAKEKLARQHKRRSDDDDRSSDRKDGVLEEQIERLQEKVESAQSEQKNLFLVIFQRFIMILTEHLVRCETDGTSVLTPWYKNCIERLQQIFLQHHQIIQQYMVTLENLLFTAELDPHILAVFQQFCALQA

Each molecule was assayed on GFP-14-3-3β (assay: GFP-14-3-3β co-IP with LC-MS/MS, untreated GFP-14-3-3β versus GFP control (14-3-3 interactome)). Conditions: untreated vs GFP; label-free quantification.
Type: binding, human
Experimental: (§1) HeLa Kyoto cells expressing transiently transfected pEGFP(C1)-14-3-3β or pEGFP(C1) control plasmid, were incubated with 20 nM Calyculin A (# 9902 S, Cell Signaling Technology) for 12 min. Cells were washed twice on ice with cold PBS and after addition of 500 µL lysis buffer (100 mM NaCl, 10 mM Tris, 0.1% IGEPAL, 1 mM EDTA, 1 mM EGTA, 20 nM Calyculin A, 1x cOmplete Mini protease inhibitor cocktail (Sigma), 1 mM DTT, 1 mM MnCl2) cells were scraped from plates, lysed by 10 pushes through an injection needle (21 G, BD) and the insoluble fraction was pelleted by centrifugation (10 min, 10^4 rcf, 4 °C). Supernatants were then subjected to incubation with 1 µM recombinant phosphatase or buffer for 1 h at 30 °C. Next, we subjected samples to immunoprecipitation using α-GFP nanobodies covalently coupled to agarose beads (2 h, 4 °C, obtained from the EMBL PEPcore Core Facility). Beads were then washed three times with lysis buffer and samples were eluted in 1x LDS sample buffer (Thermo Fisher Scientific) by heating to 70 °C for 10 min.
(§2) The samples were then reduced with 25 mM dithiothreitol (10 min at 70 °C) and alkylated with 55 mM chloroacetamide (room temperature, 30 min, in the dark). Proteins were run on a precast 4–12% NuPAGE gel (ThermoFisher Scientific) for about 1 cm to concentrate the sample prior to in-gel tryptic digestion, which was performed according to the standard procedures. The peptides obtained were dried to completeness and resuspended in 12 µL of buffer A (0.1% FA), and 5 µL of sample were injected per MS measurement. The experiment was carried out in three independent replicates.
(§3) The samples were analyzed by LC-MS/MS on a Dionex Ultimate 3000 nano-HPLC coupled online to a Fusion Lumos Tribrid mass spectrometer (Thermo Fisher Scientific). Peptides were delivered to a trap column (75 µm × 2 cm, packed in-house with 5 µm C18 resin; Reprosil PUR AQ, Dr. Maisch) and washed using 0.1% FA at a flow rate of 5 µL/min for 10 min. Subsequently, peptides were transferred to an analytical column (75 µm × 45 cm, packed in-house with 3 µm C18 resin; Reprosil Gold) applying a flow rate of 300 nL/min and separated using a 60 min linear gradient from 4% to 32% LC solvent B (0.1% FA, 5% DMSO in ACN) in LC solvent A (0.1% FA in 5% DMSO). The eluate from the analytical column was sprayed via a stainless steel emitter (Thermo Fisher Scientific) at a source voltage of 2.1 kV into the mass spectrometer. The transfer capillary was heated to 275 °C. The Fusion Lumos was operated in positive ionization mode and data-dependent acquisition (DDA), automatically switching between MS1 and MS2 spectrum acquisition. Full scan MS1 spectra were recorded in the Orbitrap from 360 to 1300 m/z at a resolution of 60k (automatic gain control (AGC) target value of 4e5 charges, maximum injection time (maxIT) of 50 ms). Up to 20 peptide precursors were isolated (isolation window, 1.7 m/z; maximum injection time, 25 ms; and AGC value, 1e5), fragmented by high-energy collision-induced dissociation (HCD) using 30% normalized collision energy (NCE), and analyzed at a resolution of 15k in the Orbitrap. Precursor ions that were singly charged, unassigned, or with charge states >6+ were excluded. The dynamic exclusion duration of fragmented precursor ions was 20 s.
(§4) Peptide and protein identification and LFQ were performed using MaxQuant software (version 1.6.1.0)[64] by searching the data against all canonical protein sequences as annotated in the Swissprot reference database (human proteins only, 20193 entries, downloaded 22 March 2016, internally annotated with PFAM domains) using the embedded search engine Andromeda[65]. The MaxQuant search was performed using two variable modifications; oxidation of methionine and N-terminal protein acetylation. Carbamidomethylation on cysteines was specified as a fixed modification. Trypsin (Trypsin/P) was specified as the proteolytic enzyme with up to two allowed missed cleavage sites.

Row | Molecule | Difference (log2), untreated vs GFP [log2]
1 | B1 | -0.4107
2 | B2 | -0.3869
3 | B3 | -0.8224
4 | B4 | 0.5977
5 | B5 | 0.8571
6 | B6 | -0.001907

These molecules were tested on GFP-14-3-3β and its binding proteins (assay: GFP-14-3-3β co-IP with LC-MS/MS label-free quantification, untreated versus PP1c-treated). Conditions: PP1 vs untreated; label-free quantification.
Design: species or system human
Experimental: as §1, §2, §3, §4

Row | Molecule | Difference (log2), PP1 vs untreated [log2]
7 | B1 | 1.257
8 | B2 | 1.256
9 | B3 | 1.224
10 | B4 | 1.221
11 | B5 | 1.211
12 | B6 | 1.197
